The record followed here is paper PMC3437207, “G-quadruplex recognition activities of E. Coli MutS”.

A value given as a limit tells only on which side of the number the result lay.

Data set [1] concerns the target T1, MutS (Escherichia coli, UniProt P23909 1-853).
T1 sequence: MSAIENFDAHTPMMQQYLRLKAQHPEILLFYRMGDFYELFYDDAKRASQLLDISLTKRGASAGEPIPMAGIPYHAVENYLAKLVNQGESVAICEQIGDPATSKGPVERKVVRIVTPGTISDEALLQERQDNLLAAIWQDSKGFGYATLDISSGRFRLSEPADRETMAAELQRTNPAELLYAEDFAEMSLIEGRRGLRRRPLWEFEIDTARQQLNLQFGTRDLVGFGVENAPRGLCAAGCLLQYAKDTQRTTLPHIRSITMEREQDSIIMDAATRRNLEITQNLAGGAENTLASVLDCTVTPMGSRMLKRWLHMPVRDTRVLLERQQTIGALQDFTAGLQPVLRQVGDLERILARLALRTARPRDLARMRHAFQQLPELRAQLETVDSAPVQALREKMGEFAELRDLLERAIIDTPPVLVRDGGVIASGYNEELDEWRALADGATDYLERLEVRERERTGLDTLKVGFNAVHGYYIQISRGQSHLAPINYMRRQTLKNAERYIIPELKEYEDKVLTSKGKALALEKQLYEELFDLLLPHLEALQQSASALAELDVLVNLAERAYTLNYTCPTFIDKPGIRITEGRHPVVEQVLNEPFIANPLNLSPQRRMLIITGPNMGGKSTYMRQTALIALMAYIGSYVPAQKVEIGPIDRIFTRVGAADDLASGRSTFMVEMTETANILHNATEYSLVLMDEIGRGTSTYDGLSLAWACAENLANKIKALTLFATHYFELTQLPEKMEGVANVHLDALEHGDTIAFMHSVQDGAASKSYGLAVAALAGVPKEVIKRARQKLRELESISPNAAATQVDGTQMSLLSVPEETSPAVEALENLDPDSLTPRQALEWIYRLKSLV
Nature of the data set: EMSA; 38-150 nM protein; 20 mM Tris pH 7.6, 5 mM MgCl2, 1 mM DTT, 50 ug/ml BSA, 10 mM KCl, 200 fmol homoduplex competitor, 10-20 fmol labeled DNA in 20 ul; 6% native PAGE 0.5X TBE with. Particulars: protein: recombinant; tags: His; chain copies: 2; label: 32P; blunt.

Data set [2] has as its target T1, MutS. Kind of data set: EMSA; no nucleotide; 5 mM Mg2+; homoduplex competitor; 20 mM Tris pH 7.6, 5 mM MgCl2, 1 mM DTT, 50 ug/ml BSA, 10 mM KCl, 200 fmol homoduplex competitor, 10-20 fmol labeled DNA in 20 ul; 6% native PAGE 0.5X TBE with. The conditions noted are these: protein: recombinant; tags: His; chain copies: 2; label: 5' 32P; blunt; single G-T mismatch at position 14 of strand 1. For orientation: Mobility shift assays separate free from complexed probe on a gel.

B1: Homoduplex (dsDNA)
DNA 1: CTAGCAAGCTTTCAATTCTAGAAATTCGGC
DNA 2: GCCGAATTTCTAGAATTGAAAGCTTGCTAG
As for B1, the binding result with MutS [1] is given as “no binding”.

B2: G-T mismatch heteroduplex (dsDNA)
DNA 1: CTAGCAAGCTTTCGATTCTAGAAATTCGGC
DNA 2: GCCGAATTTCTAGAATTGAAAGCTTGCTAG
As to B2, the binding signal with MutS [2] is > 2 fold Kd of MutS for TP-G4.
